Data on 2 molecules can be found in paper PMC6174002.

For data set [1], the target named is T1, RpoN (sigma54) (Leptospira biflexa strain Patoc 1 …, UniProt B0SR56 1-473).
T1 sequence: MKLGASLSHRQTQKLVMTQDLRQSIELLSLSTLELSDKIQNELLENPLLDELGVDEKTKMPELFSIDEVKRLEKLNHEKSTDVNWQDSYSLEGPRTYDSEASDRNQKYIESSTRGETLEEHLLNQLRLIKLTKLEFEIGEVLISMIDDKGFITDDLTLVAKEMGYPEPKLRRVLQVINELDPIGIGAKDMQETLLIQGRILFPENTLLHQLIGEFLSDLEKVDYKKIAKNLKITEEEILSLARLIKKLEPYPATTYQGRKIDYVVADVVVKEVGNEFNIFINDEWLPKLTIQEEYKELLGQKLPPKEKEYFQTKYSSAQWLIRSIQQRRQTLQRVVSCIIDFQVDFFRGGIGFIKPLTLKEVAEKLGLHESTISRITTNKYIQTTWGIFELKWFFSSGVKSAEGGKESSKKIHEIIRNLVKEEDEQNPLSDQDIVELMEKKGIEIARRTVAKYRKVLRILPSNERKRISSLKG
The data set can be described thus: EMSA. (In general: Mobility shift assays separate free from complexed probe on a gel.)

Data set [2] concerns the target T1, RpoN (sigma54). The data set can be described thus: competition.

B1: rcfA promoter -24/-12 probe (dsDNA)
DNA 1: TAAGCCCAATATGCTTTTGGCACGATAGTTGCATCTATTCTACTG
DNA 2: TTCAGTAGAATAGATGCAACTATCGTGCCAAAAGCATATTGGGCTT
Regarding B1, the binding result in the data set with RpoN (sigma54) [1] is “binds”.

B2: rcfA promoter cold competitor (dsDNA)
DNA 1: B1 DNA 1
DNA 2: B1 DNA 2
Turning to B2, the binding result in the data set with RpoN (sigma54) [2] is “binds”.
